We go through six molecules from publication PMC8441410, “Phospho‐regulated Bim1/EB1 interactions trigger Dam1c ring assembly at the budding yeast outer kinetochore” (The EMBO Journal, 2021).

B1: Spc34 subunit within recombinant Dam1^WTc (natural protein, S. cerevisiae, UniProt P36131 1-295, looked up)
chain: MGESLDRCIDDINRAVDSMSTLYFKPPGIFHNAILQGASNKASIRKDITRLIKDCNHDEAYLLFKVNPEKQSVSRRDGKEGVFDYVIKRDTDMKRNRRLGRPGEKPIIHVPKEVYLNKDRLDLNNKRRRTATTSGGGLNGFIFDTDLIGSSVISNSSSGTFKALSAVFKDDPQIQRLLYALENGSVLMEEESNNQRRKTIFVEDFPTDLILKVMAEVTDLWPLTEFKQDYDQLYHNYEQLSSKLRFIKKEVLLQDDRLKTMSQYHPSSSHDVAKIIRKEKDEIRRLEMEIANLQE
notes: Spc34, subunit of the Dam1 complex, S. cerevisiae; Stood in the cross-linking experiment as a subunit of m1; source: E. coli, purified as part of Dam1c
B3: Duo1 subunit within recombinant Dam1^WTc (natural protein, S. cerevisiae, UniProt P53168 1-247, looked up)
chain: MSEQSQLDDSTIDKLIPQIFNEMRSNLNNTTNKFPKSTGGGASDNISANSNSIRSFNSITTQSLLKESESLDKITAMIKNVTAALKNNLPVYVNQVHEVCKSTNSILDSWINIHSQAGYIHKLMSDQTYLKLINDRLHNENVNTNDEDGSTLHNVIALKKKEILDLRQKLENRKGEKDAAPAKPPNQGLNPRYGVQSGRRPVPSAGISNNGRVRKTHVPASKRPSGIPRVTNRWTKPTASSSRKMFR
notes: Duo1, subunit of the Dam1 complex, S. cerevisiae; Stood in the cross-linking experiment as a subunit of m1; source: E. coli, purified as part of Dam1c
B4: Dam1 subunit within recombinant Dam1^WTc (natural protein, S. cerevisiae, UniProt P53267 1-343, looked up)
chain: MSEDKAKLGTTRSATEYRLSIGSAPTSRRSSMGESSSLMKFADQEGLTSSVGEYNENTIQQLLLPKIRELSDSIITLDSNFTRLNFIHESLADLNESLGSLLYGIMSNSWCVEFSQAPHDIQDDLIAIKQLKSLEDEKNNLVMELSNMERGIKRKKDEQGENDLAKASQNKQFNQPLFPSSQVRKYRSYDNRDKRKPSKIGNNLQVENEEDYEDDTSSEASFVLNPTNIGMSKSSQGHVTKTTRLNNNTNSKLRRKSILHTIRNSIASGADLPIENDNVVNLGDLHPNNRISLGSGAARVVNGPVTKNRNSMFSGRAERKPTESRHSVAKKTEKKINTRPPFR
notes: Dam1, subunit of the Dam1 complex, S. cerevisiae; Stood in the cross-linking experiment as a subunit of m1; source: E. coli, purified as part of Dam1c
B5: Bim1 (yeast homolog of EB1), recombinant (natural protein, S. cerevisiae, UniProt P40013 1-344, looked up)
chain: MSAGIGESRTELLTWLNGLLNLNYKKIEECGTGAAYCQIMDSIYGDLPMNRVKFNATAEYEFQTNYKILQSCFSRHGIEKTVYVDKLIRCKFQDNLEFLQWLKKHWIRHKDESVYDPDARRKYRPIITNNSATKPRTVSNPTTAKRSSSTGTGSAMSGGLATRHSSLGINGSRKTSVTQGQLVAIQAELTKSQETIGSLNEEIEQYKGTVSTLEIEREFYFNKLRDIEILVHTTQDLINEGVYKFNDETITGHGNGNGGALLRFVKKVESILYATAEGFEMNDGEDELNDKNLGEHGTVPNQGGYANSNGEVNGNEGSNHDVIMQNDEGEVGVSNNLIIDEETF
notes: Bim1, S. cerevisiae microtubule plus end-tracking protein; CH domain, linker, coiled coil, EBH domain, C-terminal ETF; also called Bim1/EB1; source: E. coli, purified (GSTrap, further steps as in Zimniak et al 2009)

In test [1] the target is B5. The test can be described thus: cross-linking; BS3-H12/D12 600 µM, 35°C, 45 min; 60 µg Dam1c without or with 7.4 µg Bim1; cross-linked lysines identified by mass spectrometry. Conditions: both partners purified.
The target of test [2] is B1. The description is as above. Conditions: both partners purified.
Test [3] addresses B4. The description is as above. The conditions noted are these: both partners purified.
The target of the next test is T1, Bik1-6xHis (S. cerevisiae, UniProt P11709 1-440).
T1 construct: Bik1, S. cerevisiae CLIP-170 homolog; Detected with an anti-penta-His antibody in SEC fractions; also called Bik1/CLIP-170; source: E. coli BL21 Rosetta, purified (HisTrap, gel filtration)
T1 sequence (looked up): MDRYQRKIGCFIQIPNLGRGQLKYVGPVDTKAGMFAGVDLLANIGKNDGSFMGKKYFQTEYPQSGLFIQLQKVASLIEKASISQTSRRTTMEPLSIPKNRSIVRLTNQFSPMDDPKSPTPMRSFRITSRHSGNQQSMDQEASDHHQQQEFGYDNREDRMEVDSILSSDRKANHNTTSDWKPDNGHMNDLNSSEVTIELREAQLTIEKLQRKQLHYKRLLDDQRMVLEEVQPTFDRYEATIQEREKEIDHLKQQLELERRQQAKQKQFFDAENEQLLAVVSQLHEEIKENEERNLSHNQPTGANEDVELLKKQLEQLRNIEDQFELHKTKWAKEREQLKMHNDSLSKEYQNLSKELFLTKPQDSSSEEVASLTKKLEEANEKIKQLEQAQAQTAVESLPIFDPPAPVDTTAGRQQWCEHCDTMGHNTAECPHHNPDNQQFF
Description: SEC; analytical, Superose 6 Increase 3.2/300; 25 mM HEPES pH 7.4, 200 mM NaCl, 1 mM MgCl2, 0.5 mM TCEP, 2.5% glycerol; fractions by SDS-PAGE or Western blot; Dam1c with Bim1-Bik1 also at 5, 7.5, 10 µM input and at 100 mM NaCl. Conditions: both partners purified.

Test [4] concerns the target Dam1 complex, wild type (Dam1^WTc), recombinant, with Hsk3-6xHis (S. cerevisiae) (UniProt P53267). The test can be described thus: pull-down; Ndc80c-Flag on anti-Flag M2 agarose beads (loaded from Sf9 lysate, washed); Dam1c or Bim1 alone or Dam1c pre-incubated with increasing Bim1 (up to 16 µM), 4°C 15 min; 25 mM HEPES pH 7.4, 200 mM NaCl, 0.01% Triton X-100; eluted with 3xFlag peptide, SDS-PAGE.

The target in test [5] is B3. The test can be described thus: cross-linking; BS3-H12/D12 600 µM, 35°C, 45 min; 60 µg Dam1c without or with 7.4 µg Bim1; cross-linked lysines identified by mass spectrometry. Conditions: both partners purified.

Regarding B1, in test [1], the binding result is “binds”.

B2: Dad4 subunit within recombinant Dam1^WTc (natural protein, S. cerevisiae, UniProt P69851 1-72, looked up)
chain: MENPHEQVQANILSRIIGNVKRLNESVAILNQELVTINNRNKNLEIMGAICDNYHSSVQFNLEATNNKKPPL
notes: Dad4, subunit of the Dam1 complex, S. cerevisiae; Stood in the cross-linking experiment as a subunit of m1; source: E. coli, purified as part of Dam1c
Turning to B2, the binding result in test [1] was “binds”.
Take B3: the binding result in test [2], in test [3] and in test [1] was “binds” throughout.
B4: in test [1], the binding result was “binds”.
As to B5, the binding result with Bik1-6xHis is listed as “binds”. Further, the decrease of the amount of Dam1c bound to Ndc80c with Bim1 up to 16 µM in test [4] is 30%.

B6: Spc19 subunit within recombinant Dam1^WTc (natural protein, S. cerevisiae, UniProt Q03954 1-165, looked up)
chain: MTDALEQSVLALEGTVSVLKDSVESLKCANEPSTNLASTMLQTKRVFRLVPEYDVERSKLDLIEEVEPLVRTLGDKLRKSMGRMQRELDTLQQTYELNDLRLKKNISMDDDDALNSPDMGQEYEGRDADDVVMMASSTNEELEELKKLKEKKKQLENKLEILKQK
notes: Spc19, subunit of the Dam1 complex, S. cerevisiae; Stood in the cross-linking experiment as a subunit of m1; source: E. coli, purified as part of Dam1c
On to B6, for which the binding result in test [5] and in test [1] was “binds” in each case.
